Article PMC8990068

The substances below were run against Fc gamma receptor I (human) (UniProt P12314) (assay: AlphaScreen or HTRF; AlphaLISA human FCGR binding kit (PerkinElmer), competition: donor and acceptor beads coated with unmodified IgG and FcγR-I; serial dilutions of SPGR-engineered IgG in 1X HiBlock buffer (1 mg/ml to 0.1 μg/ml); 25 °C, 90 min; signal at 615 nm).
UniProt P12314, sequence (P12314 16-292): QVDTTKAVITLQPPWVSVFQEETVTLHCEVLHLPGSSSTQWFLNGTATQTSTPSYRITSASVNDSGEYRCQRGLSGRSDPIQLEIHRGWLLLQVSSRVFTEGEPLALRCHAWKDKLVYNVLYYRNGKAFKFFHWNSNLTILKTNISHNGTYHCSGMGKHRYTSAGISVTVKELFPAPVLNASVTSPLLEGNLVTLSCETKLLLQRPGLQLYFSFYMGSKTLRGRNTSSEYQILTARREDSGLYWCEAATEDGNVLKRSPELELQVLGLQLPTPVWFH

| Substance | signal reduction at 0.1 μg/ml |
| --- | --- |
| SPGR-engineered human serum IgG, sample 1, (F)M3 glycans (terminating with mannose) (antibody) | 60% |
| SPGR-engineered human serum IgG, sample 7, mono-antennary glycans (after GnT-I, GalT and SialylT) (antibody) | 60% |
| SPGR-engineered human serum IgG, sample 9, bisecting glycans (after GnT-III and GalT) (antibody) | 60% |
| SPGR-engineered human serum IgG, sample 10, bisecting sialylated glycans (FA2BG2S2 route) (antibody) | 60% |

The remaining lines, values ahead:

| signal reduction at 0.1 μg/ml | Substance |
| --- | --- |
| 60% | SPGR-engineered human serum IgG, sample 2, bi-antennary (F)A2 glycans (terminating with GlcNAc) (antibody) |
| 60% | SPGR-engineered human serum IgG, sample 3, bi-antennary glycans with terminal galactose (antibody) |
| 60% | SPGR-engineered human serum IgG, sample 4, bi-antennary sialylated glycans (antibody) |
| 60% | SPGR-engineered human serum IgG, sample 5, mono-antennary glycans terminating with GlcNAc (antibody) |
| 60% | SPGR-engineered human serum IgG, sample 6, mono-antennary glycans (after GnT-I and GalT) (antibody) |
| 60% | SPGR-engineered human serum IgG, sample 8, bisecting glycans terminating with GlcNAc (antibody) |
